{"source": "paper PMC9131872", "target": "African swine fever virus (ASFV) decapping enzyme g5R protein, recombinant wild type (residues 1 to 250) (African swine fever virus (ASFV)) (UniProt P32092)", "experiment": "cross-linking"}
{"substance": "African swine fever virus (ASFV) decapping enzyme g5R protein, recombinant wild type (residues 1 to 250) (from UniProt P32092 1-250)", "values": [{"measurement": "stoichiometry N", "result": 2}]}
